{
  "source": "patent US20250290928A1",
  "about": "“METHOD, KIT AND DEVICE FOR DETECTING EXTRACELLULAR VESICLES” (priority 2022, published 2025)",
  "key": {"[1]": {"biological_target": "T1, MMP14 in the MDA-MB-231-derived extracellular vesicles (Homo sapiens, UniProt P50281)", "T1 construct": "in terms of intact MMP14 with a molecular weight of 70 kDa", "assay": "Evaluation of MMP14 activity of MDA-MB-231-derived extracellular vesicles with 96-well plate", "type": "biochemical", "procedure": "A relative fluorescence unit difference ΔRFU was calculated by subtracting the measured value of the sample for BG measurement from the measured value of each of the samples.\nThe concentration of the solution is 41.7 μg/mL. The concentration of the solution was set to x1, and 2-fold serial dilution was performed to prepare standard samples with six concentrations.\n50 μL of the MMP14 detection solution was added to 50 μL of each of the samples, a reaction was performed at 37° C., and MMP14 activity was evaluated.\nThe concentration of the solution is 10 μg/mL.\n50 μL of each of the MMP14 detection solutions was added to 50 μL of each of the samples, a reaction was performed at 37° C., and MMP14 activity was evaluated. […]\nThe concentration of the solution is 20 μg/mL. The concentration of the solution was set to x1, and 3-fold serial dilution was performed to prepare standard samples with three concentrations.\nThe concentration of the solution is 8 μg/mL.\n50 μL of each of the MMP14 detection solutions was added to 50 μL of the sample, a reaction was performed at 37° C., and MMP14 activity was evaluated. […]\n50 μL of the MMP14 detection solution was added to 50 μL of each of the samples, a reaction was performed at 30° C., and MMP14 activity was evaluated.\nThe MMP14 activity of the extracellular vesicles was evaluated with a 96-well plate (137101). A fluorescence intensity was measured with a fluorescence plate reader (Synergy) at 30° C. every 5 minutes for 2 hours. For measurement wavelengths, an excitation wavelength of 545±20 nm and a fluorescence wavelength of 588±20 nm were used. A relative fluorescence unit difference (ΔRFU) was calculated by subtracting the measured value of the sample for BG measurement from the measured value of each of the samples.\n50 μL of each of the MMP14 detection solutions was added to 50 μL of each of the samples, a reaction was performed at 30° C., and MMP14 activity was evaluated."}, "[2]": {"biological_target": "T1, MMP14 in the MDA-MB-231-derived extracellular vesicles", "assay": "Digital detection of MDA-MB-231-derived extracellular vesicles through MMP14 activity in wells (microcompartments)", "type": "biochemical", "conditions": "for Expected value λ / Number of positives / Positive ratio: reporter 5 μM, 30° C.", "procedure": "The concentration of the solution is 6.7 μg/mL.\n100 μL of the MMP14 detection solution was added to 100 μL of the sample to provide a reaction solution for wells. […] 100 μL of 200 μL of the prepared reaction solution for wells was used in the measurement of MMP14 activity with a 96-well plate.\nNext, the wells were filled with the reaction solution by leaving the well array 200 to stand under reduced pressure to degas the space 205. After that, the space 205 was fed with hydrophobic solvents to be sealed. Fluorinated oils AsahiKlin AE-3000 (manufactured by AGC Inc.) and Fomblin Y-25 (manufactured by Solvay S.A.) were used as the hydrophobic solvents. A fluorinated oil Simoa (trademark) SR-X Sealing Oil: 102767 (manufactured by Quanterix Corporation) was further used as another hydrophobic solvent.\nWell diameter: 4.25 μm Well depth: 3.25 μm Well capacity: 50 fL Number of wells in array: 239,000 Array range: 3 mm×4 mm\nThe concentration of the solution is 20 μg/mL. […] The concentration of the solution was set to x1, and 10-fold serial dilution was performed to prepare standard samples with five concentrations.\nNext, the wells were filled with the reaction solution by leaving the well array 200 to stand under reduced pressure to degas the space 205. After that, the space 205 was fed with hydrophobic solvents to be sealed.\nThe concentration of the solution is 20 μg/mL. […] The concentration of the solution was set to x1, and 3-fold serial dilution was performed to prepare standard samples with three concentrations.\nThe concentration of the solution is 20 μg/mL. […] The concentration of the solution was set to x1, and 2-fold serial dilution was performed to prepare standard samples with four concentrations.\nThe concentration of the solution is 5 μg/mL.\n50 μL of the MMP14 detection solution was added to 50 μL of the sample to provide a reaction solution for wells.\n50 μL of each of the MMP14 detection solutions was added to 50 μL of the sample to provide a reaction solution for wells.\nThe concentration of the solution is 6.7 µg/mL."}, "[3]": {"conditions": "Example 42, EV 2.5 μg/mL, 4 hr, TRITC filter"}, "[4]": {"conditions": "Example 42, EV 2.5 μg/mL, 24 hr, TRITC filter"}, "[5]": {"conditions": "Example 37, EV 5 μg/mL, reporter 5 μM, buffer (4)"}, "[6]": {"conditions": "MP, 1.25 μM with 5 μM Custom #2TF3"}, "[7]": {"conditions": "MP, 2.5 μM with 2.5 μM Custom #2TF3"}, "[8]": {"conditions": "Example 38, 4 hr, at a concentration of x1, 50 fL"}, "[9]": {"conditions": "Example 38, 24 hr, at a concentration of x1, 50 fL"}, "[10]": {"conditions": "Example 38, EV 2.5 μg/mL, 24 hr"}},
  "note": "No end group written: not given here. *: point of attachment. 5FAM = O=C1OC2(c3ccc(O)cc3Oc3cc(O)ccc32)c2ccc(C(=O)*)cc21; TF3 = Tide Fluor 3, fluorescent dye; TQ2 = quencher; TQ3 = quencher",
  "data": [
    {"substance": "MCA-Pro-Leu-Ala-Cys(p-OMeBz)-Trp-Ala-Arg(Dpa)-NH2 [MMP-14 Substrate I]", "values": [
      {"measurement": "detection of MMP14 activity (fluorescence intensity increased with the reaction time)", "setting": "[1]; Example 3, EV 5 μg/mL, reporter 10, 5 or 2.5 μM, 37° C., 2 hours", "value": "MMP14 activity was able to be detected"}
    ]},
    {"substance": "TF3-GGPLGLAGGK(TQ3) [Custom #2TF3]", "values": [
      {"measurement": "Fluorescence change after 2 hours of reaction at 30° C.", "setting": "[1]; Example 41, EV 5 μg/mL, reporter 5 μM, buffer (4), excitation 545±20 nm, fluorescence 588±20 nm", "value": "3,791 ΔRFU"},
      {"measurement": "Fluorescence change after 2 hours of reaction at 30° C.", "setting": "[1]; MP, 2.5 μM Custom #2TF3 with 2.5 μM Custom #11", "value": "313 ΔRFU"},
      {"measurement": "Fluorescence change after 2 hours of reaction at 30° C.", "setting": "[1]; MP, 2.5 μM Custom #2TF3 with 2.5 μM Custom #12", "value": "319 ΔRFU"},
      {"measurement": "Fluorescence change after 2 hours of reaction at 30° C.", "setting": "[1]; MP, 2.5 μM Custom #2TF3 with 2.5 μM Custom #13", "value": "452 ΔRFU"},
      {"measurement": "Fluorescence change after 2 hours of reaction at 30° C.", "setting": "[1]; MP, 2.5 μM Custom #2TF3 with 2.5 μM Custom #14", "value": "397 ΔRFU"},
      {"measurement": "Fluorescence change after 2 hours of reaction at 30° C.", "setting": "[1]; MP, 2.5 μM Custom #2TF3 with 2.5 μM Custom #15", "value": "551 ΔRFU"},
      {"measurement": "Fluorescence change after 2 hours of reaction at 30° C.", "setting": "[1]; MP, 2.5 μM Custom #2TF3 with 2.5 μM Custom #16", "value": "1,085 ΔRFU"},
      {"measurement": "Fluorescence change after 2 hours of reaction at 30° C.", "setting": "[1]; MP, 5 μM Custom #2TF3 with 1.25 μM Custom #11", "value": "772 ΔRFU"},
      {"measurement": "Fluorescence change after 2 hours of reaction at 30° C.", "setting": "[1]; MP, 5 μM Custom #2TF3 with 1.25 μM Custom #12", "value": "618 ΔRFU"},
      {"measurement": "Fluorescence change after 2 hours of reaction at 30° C.", "setting": "[1]; MP, 5 μM Custom #2TF3 with 1.25 μM Custom #13", "value": "814 ΔRFU"},
      {"measurement": "Fluorescence change after 2 hours of reaction at 30° C.", "setting": "[1]; MP, 5 μM Custom #2TF3 with 1.25 μM Custom #14", "value": "714 ΔRFU"},
      {"measurement": "Fluorescence change after 2 hours of reaction at 30° C.", "setting": "[1]; MP, 5 μM Custom #2TF3 with 1.25 μM Custom #15", "value": "1,023 ΔRFU"},
      {"measurement": "Fluorescence change after 2 hours of reaction at 30° C.", "setting": "[1]; MP, 5 μM Custom #2TF3 with 1.25 μM Custom #16", "value": "1,857 ΔRFU"},
      {"measurement": "Expected value λ", "setting": "[2]; [3]", "value": 0.1432},
      {"measurement": "Number of positives", "setting": "[2]; [3]", "value": "3,746"},
      {"measurement": "Positive ratio", "setting": "[2]; [3]", "value": 0.1334},
      {"measurement": "Expected value λ", "setting": "[2]; [4]", "value": 0.1447},
      {"measurement": "Number of positives", "setting": "[2]; [4]", "value": "3,783"},
      {"measurement": "Positive ratio", "setting": "[2]; [4]", "value": 0.1347},
      {"measurement": "Expected value λ (×1)", "setting": "[2]; single reporter, reaction 4 hr, at EV concentration x1", "value": 0.5727},
      {"measurement": "Extracellular vesicle concentration", "setting": "[2]; single reporter, reaction 4 hr, at x1, from λ (×1) and 50 fL microcompartment", "value": "1.1454e+10", "unit": "mL⁻¹"},
      {"measurement": "Expected value λ (×1)", "setting": "[2]; single reporter, reaction 24 hr, at EV concentration x1", "value": 0.5788},
      {"measurement": "Extracellular vesicle concentration", "setting": "[2]; single reporter, reaction 24 hr, at x1, from λ (×1) and 50 fL microcompartment", "value": "1.1576e+10", "unit": "mL⁻¹"}
    ]},
    {"substance": "TQ2-DLPAGLQARK(5-FAM) (TQ2-DLPAGLQARK(5FAM)) [Custom #14]", "values": [
      {"measurement": "Fluorescence change after 2 hours of reaction at 30° C.", "setting": "[1]; [5]", "value": "34,878 ΔRFU"},
      {"measurement": "Fluorescence change after 2 hours of reaction at 30° C.", "setting": "[1]; [6]", "value": "9,504 ΔRFU"},
      {"measurement": "Fluorescence change after 2 hours of reaction at 30° C.", "setting": "[1]; [7]", "value": "14,104 ΔRFU"},
      {"measurement": "Expected value λ (×1)", "setting": "[2]; Example 38, 4 hr", "value": 0.9841},
      {"measurement": "Extracellular vesicle concentration", "setting": "[2]; [8]", "value": "1.968e+10", "unit": "mL⁻¹"},
      {"measurement": "Expected value λ (×1)", "setting": "[2]; Example 38, 24 hr", "value": 1.5709},
      {"measurement": "Extracellular vesicle concentration", "setting": "[2]; [9]", "value": "3.142e+10", "unit": "mL⁻¹"},
      {"measurement": "Expected value λ", "setting": "[2]; Example 38, EV 2.5 μg/mL, 4 hr", "value": 0.246},
      {"measurement": "Number of positives", "setting": "[2]; Example 38, EV 2.5 μg/mL, 4 hr", "value": "6,120"},
      {"measurement": "Positive ratio", "setting": "[2]; Example 38, EV 2.5 μg/mL, 4 hr", "value": 0.2181},
      {"measurement": "Expected value λ", "setting": "[2]; [10]", "value": 0.3927},
      {"measurement": "Number of positives", "setting": "[2]; [10]", "value": "9,120"},
      {"measurement": "Positive ratio", "setting": "[2]; [10]", "value": 0.3248}
    ]},
    {"substance": "TQ2-FMPLGLRGIK(5-FAM) (TQ2-FMPLGLRGIK(5FAM)) [Custom #12]", "values": [
      {"measurement": "Fluorescence change after 2 hours of reaction at 30° C.", "setting": "[1]; [5]", "value": "32,801 ΔRFU"},
      {"measurement": "Fluorescence change after 2 hours of reaction at 30° C.", "setting": "[1]; [6]", "value": "13,343 ΔRFU"},
      {"measurement": "Fluorescence change after 2 hours of reaction at 30° C.", "setting": "[1]; [7]", "value": "19,102 ΔRFU"},
      {"measurement": "Expected value λ (×1)", "setting": "[2]; Example 38, 4 hr", "value": 0.5189},
      {"measurement": "Extracellular vesicle concentration", "setting": "[2]; [8]", "value": "1.0377e+10", "unit": "mL⁻¹"},
      {"measurement": "Expected value λ (×1)", "setting": "[2]; Example 38, 24 hr", "value": 1.232},
      {"measurement": "Extracellular vesicle concentration", "setting": "[2]; [9]", "value": "2.464e+10", "unit": "mL⁻¹"},
      {"measurement": "Expected value λ", "setting": "[2]; Example 38, EV 2.5 μg/mL, 4 hr", "value": 0.1297},
      {"measurement": "Number of positives", "setting": "[2]; Example 38, EV 2.5 μg/mL, 4 hr", "value": "3,416"},
      {"measurement": "Positive ratio", "setting": "[2]; Example 38, EV 2.5 μg/mL, 4 hr", "value": 0.1216},
      {"measurement": "Expected value λ", "setting": "[2]; [10]", "value": 0.308},
      {"measurement": "Number of positives", "setting": "[2]; [10]", "value": "7,423"},
      {"measurement": "Positive ratio", "setting": "[2]; [10]", "value": 0.2651}
    ]}
  ]
}
